Among the data in patent EP0571387B1 are inhibition of HGF-induced [3H]-thymidine incorporation in B5/589 cells (fold molar excess over HGF) values, retold here.

In this assay the target is c-met protooncogene product (HGF receptor) on B5/589 human mammary epithelial cells (human) (UniProt P08581). In words: cell-based or functional assay.
Sequence of UniProt P08581 (P08581 25-1390): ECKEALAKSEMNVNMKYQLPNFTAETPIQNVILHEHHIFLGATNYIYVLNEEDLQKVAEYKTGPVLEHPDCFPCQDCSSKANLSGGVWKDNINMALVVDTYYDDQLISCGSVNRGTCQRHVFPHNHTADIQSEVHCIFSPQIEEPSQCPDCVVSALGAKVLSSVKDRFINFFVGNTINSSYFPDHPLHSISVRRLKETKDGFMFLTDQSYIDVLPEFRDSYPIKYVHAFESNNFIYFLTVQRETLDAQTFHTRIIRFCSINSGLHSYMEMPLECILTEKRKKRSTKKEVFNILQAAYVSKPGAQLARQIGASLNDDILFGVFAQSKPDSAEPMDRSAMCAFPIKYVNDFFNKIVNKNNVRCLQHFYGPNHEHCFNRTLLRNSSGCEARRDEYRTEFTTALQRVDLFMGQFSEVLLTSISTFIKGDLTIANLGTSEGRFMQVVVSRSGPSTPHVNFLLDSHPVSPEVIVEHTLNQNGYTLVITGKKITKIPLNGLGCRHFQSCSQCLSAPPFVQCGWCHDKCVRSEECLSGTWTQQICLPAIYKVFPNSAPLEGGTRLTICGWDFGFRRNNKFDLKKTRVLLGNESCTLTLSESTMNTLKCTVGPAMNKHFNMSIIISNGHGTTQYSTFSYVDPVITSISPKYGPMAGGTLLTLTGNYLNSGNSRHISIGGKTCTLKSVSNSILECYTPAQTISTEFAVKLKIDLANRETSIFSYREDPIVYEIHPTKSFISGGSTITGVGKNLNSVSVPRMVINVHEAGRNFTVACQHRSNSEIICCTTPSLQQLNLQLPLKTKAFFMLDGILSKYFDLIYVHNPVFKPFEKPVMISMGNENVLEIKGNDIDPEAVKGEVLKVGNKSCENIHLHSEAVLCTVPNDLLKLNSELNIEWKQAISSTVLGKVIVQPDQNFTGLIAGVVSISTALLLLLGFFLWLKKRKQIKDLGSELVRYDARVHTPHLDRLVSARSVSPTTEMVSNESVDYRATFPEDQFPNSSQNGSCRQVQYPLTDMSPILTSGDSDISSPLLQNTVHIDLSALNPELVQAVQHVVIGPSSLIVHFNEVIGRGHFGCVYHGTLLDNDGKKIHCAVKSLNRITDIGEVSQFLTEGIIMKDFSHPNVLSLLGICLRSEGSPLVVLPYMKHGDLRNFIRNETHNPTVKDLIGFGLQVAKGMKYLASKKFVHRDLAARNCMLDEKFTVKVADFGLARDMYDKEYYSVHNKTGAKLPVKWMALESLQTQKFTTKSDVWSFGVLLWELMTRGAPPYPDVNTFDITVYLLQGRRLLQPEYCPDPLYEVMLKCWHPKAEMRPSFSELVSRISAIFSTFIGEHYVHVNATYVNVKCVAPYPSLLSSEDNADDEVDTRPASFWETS

The substance “HGF/NK2 (34 kd truncated HGF variant, naturally occurring, purified from conditioned medium of SK-LMS-1 cells) (ligand)” showed an inhibition of HGF-induced [3H]-thymidine incorporation in B5/589 cells (fold molar excess over HGF) of 10 to 20.
